One block for each binder: values may come before it.
B1: FLAG-tagged WT β-catenin (other, UniProt P35222 1-781, looked up)
chain: MATQADLMELDMAMEPDRKAAVSHWQQQSYLDSGIHSGATTTAPSLSGKGNPEEEDVDTSQVLYEWEQGFSQSFTQEQVADIDGQYAMTRAQRVRAAMFPETLDEGMQIPSTQFDAAHPTNVQRLAEPSQMLKHAVVNLINYQDDAELATRAIPELTKLLNDEDQVVVNKAAVMVHQLSKKEASRHAIMRSPQMVSAIVRTMQNTNDVETARCTAGTLHNLSHHREGLLAIFKSGGIPALVKMLGSPVDSVLFYAITTLHNLLLHQEGAKMAVRLAGGLQKMVALLNKTNVKFLAITTDCLQILAYGNQESKLIILASGGPQALVNIMRTYTYEKLLWTTSRVLKVLSVCSSNKPAIVEAGGMQALGLHLTDPSQRLVQNCLWTLRNLSDAATKQEGMEGLLGTLVQLLGSDDINVVTCAAGILSNLTCNNYKNKMMVCQVGGIEALVRTVLRAGDREDITEPAICALRHLTSRHQEAEMAQNAVRLHYGLPVVVKLLHPPSHWPLIKATVGLIRNLALCPANHAPLREQGAIPRLVQLLVRAHQDTQRRTSMGGTQQQFVEGVRMEEIVEGCTGALHILARDVHNRIVIRGLNTIPLFVQLLYSPIENIQRVAAGVLCELAQDKEAAEAIEAEGATAPLTELLHSRNEGVATYAAAVLFRMSEDKPQDYKKRLSVELTSSLFRTEPMAWNETADLGLDIGAQGEPLGYRQDDPSYRSFHSGGYGQDALGMDPMMEHEMGGHHPGADYPVDGLPDLGHAQDLMDGLPPGDSNQLAWFDTDL
notes: Transiently expressed in U87/EGFR or A431 cells; also called FLAG-β-catenin; not shown: FLAG tag
B2: FLAG-β-catenin Y333F (other, UniProt P35222 1-781, looked up)
chain: MATQADLMELDMAMEPDRKAAVSHWQQQSYLDSGIHSGATTTAPSLSGKGNPEEEDVDTSQVLYEWEQGFSQSFTQEQVADIDGQYAMTRAQRVRAAMFPETLDEGMQIPSTQFDAAHPTNVQRLAEPSQMLKHAVVNLINYQDDAELATRAIPELTKLLNDEDQVVVNKAAVMVHQLSKKEASRHAIMRSPQMVSAIVRTMQNTNDVETARCTAGTLHNLSHHREGLLAIFKSGGIPALVKMLGSPVDSVLFYAITTLHNLLLHQEGAKMAVRLAGGLQKMVALLNKTNVKFLAITTDCLQILAYGNQESKLIILASGGPQALVNIMRTYTFEKLLWTTSRVLKVLSVCSSNKPAIVEAGGMQALGLHLTDPSQRLVQNCLWTLRNLSDAATKQEGMEGLLGTLVQLLGSDDINVVTCAAGILSNLTCNNYKNKMMVCQVGGIEALVRTVLRAGDREDITEPAICALRHLTSRHQEAEMAQNAVRLHYGLPVVVKLLHPPSHWPLIKATVGLIRNLALCPANHAPLREQGAIPRLVQLLVRAHQDTQRRTSMGGTQQQFVEGVRMEEIVEGCTGALHILARDVHNRIVIRGLNTIPLFVQLLYSPIENIQRVAAGVLCELAQDKEAAEAIEAEGATAPLTELLHSRNEGVATYAAAVLFRMSEDKPQDYKKRLSVELTSSLFRTEPMAWNETADLGLDIGAQGEPLGYRQDDPSYRSFHSGGYGQDALGMDPMMEHEMGGHHPGADYPVDGLPDLGHAQDLMDGLPPGDSNQLAWFDTDL
notes: Transiently expressed in U87/EGFR or A431 cells; not shown: FLAG tag
B8: endogenous β-catenin (other, human, UniProt P35222 2-781, looked up)
chain: ATQADLMELDMAMEPDRKAAVSHWQQQSYLDSGIHSGATTTAPSLSGKGNPEEEDVDTSQVLYEWEQGFSQSFTQEQVADIDGQYAMTRAQRVRAAMFPETLDEGMQIPSTQFDAAHPTNVQRLAEPSQMLKHAVVNLINYQDDAELATRAIPELTKLLNDEDQVVVNKAAVMVHQLSKKEASRHAIMRSPQMVSAIVRTMQNTNDVETARCTAGTLHNLSHHREGLLAIFKSGGIPALVKMLGSPVDSVLFYAITTLHNLLLHQEGAKMAVRLAGGLQKMVALLNKTNVKFLAITTDCLQILAYGNQESKLIILASGGPQALVNIMRTYTYEKLLWTTSRVLKVLSVCSSNKPAIVEAGGMQALGLHLTDPSQRLVQNCLWTLRNLSDAATKQEGMEGLLGTLVQLLGSDDINVVTCAAGILSNLTCNNYKNKMMVCQVGGIEALVRTVLRAGDREDITEPAICALRHLTSRHQEAEMAQNAVRLHYGLPVVVKLLHPPSHWPLIKATVGLIRNLALCPANHAPLREQGAIPRLVQLLVRAHQDTQRRTSMGGTQQQFVEGVRMEEIVEGCTGALHILARDVHNRIVIRGLNTIPLFVQLLYSPIENIQRVAAGVLCELAQDKEAAEAIEAEGATAPLTELLHSRNEGVATYAAAVLFRMSEDKPQDYKKRLSVELTSSLFRTEPMAWNETADLGLDIGAQGEPLGYRQDDPSYRSFHSGGYGQDALGMDPMMEHEMGGHHPGADYPVDGLPDLGHAQDLMDGLPPGDSNQLAWFDTDL
notes: In EGF-treated cells it is tyrosine-phosphorylated (Y333) in the nucleus

Tests used:
[1] = target: AXIN2 (endogenous, A431 cells) (UniProt Q9Y2T1 1-843); assay: co-IP, A431 cells
[2] = target: APC (endogenous, A431 cells) (UniProt P25054 2-2843, limits assumed); assay: co-IP, A431 cells
FLAG-β-catenin Y333F = target: B2; assay: co-IP, A431 cells
FLAG-tagged WT β-catenin = target: B1; assay: co-IP, A431 cells
endogenous β-catenin = target: B8; assay: co-IP, EGF-treated U87/EGFR cells
purified GST-importin α5 = target: T1, purified GST-importin α5 (human, UniProt P52294 1-538, limits assumed); assay: GST pull-down from lysates of EGF-treated U87/EGFR cells
T1 construct: Expressed in bacteria and purified; not shown: GST

endogenous c-Src = endogenous c-Src (human, UniProt P12931 2-536); assay: co-IP from nuclear fractions of U87/EGFR cells

APC (endogenous, A431 cells), sequence (P25054 2-2843 limits assumed): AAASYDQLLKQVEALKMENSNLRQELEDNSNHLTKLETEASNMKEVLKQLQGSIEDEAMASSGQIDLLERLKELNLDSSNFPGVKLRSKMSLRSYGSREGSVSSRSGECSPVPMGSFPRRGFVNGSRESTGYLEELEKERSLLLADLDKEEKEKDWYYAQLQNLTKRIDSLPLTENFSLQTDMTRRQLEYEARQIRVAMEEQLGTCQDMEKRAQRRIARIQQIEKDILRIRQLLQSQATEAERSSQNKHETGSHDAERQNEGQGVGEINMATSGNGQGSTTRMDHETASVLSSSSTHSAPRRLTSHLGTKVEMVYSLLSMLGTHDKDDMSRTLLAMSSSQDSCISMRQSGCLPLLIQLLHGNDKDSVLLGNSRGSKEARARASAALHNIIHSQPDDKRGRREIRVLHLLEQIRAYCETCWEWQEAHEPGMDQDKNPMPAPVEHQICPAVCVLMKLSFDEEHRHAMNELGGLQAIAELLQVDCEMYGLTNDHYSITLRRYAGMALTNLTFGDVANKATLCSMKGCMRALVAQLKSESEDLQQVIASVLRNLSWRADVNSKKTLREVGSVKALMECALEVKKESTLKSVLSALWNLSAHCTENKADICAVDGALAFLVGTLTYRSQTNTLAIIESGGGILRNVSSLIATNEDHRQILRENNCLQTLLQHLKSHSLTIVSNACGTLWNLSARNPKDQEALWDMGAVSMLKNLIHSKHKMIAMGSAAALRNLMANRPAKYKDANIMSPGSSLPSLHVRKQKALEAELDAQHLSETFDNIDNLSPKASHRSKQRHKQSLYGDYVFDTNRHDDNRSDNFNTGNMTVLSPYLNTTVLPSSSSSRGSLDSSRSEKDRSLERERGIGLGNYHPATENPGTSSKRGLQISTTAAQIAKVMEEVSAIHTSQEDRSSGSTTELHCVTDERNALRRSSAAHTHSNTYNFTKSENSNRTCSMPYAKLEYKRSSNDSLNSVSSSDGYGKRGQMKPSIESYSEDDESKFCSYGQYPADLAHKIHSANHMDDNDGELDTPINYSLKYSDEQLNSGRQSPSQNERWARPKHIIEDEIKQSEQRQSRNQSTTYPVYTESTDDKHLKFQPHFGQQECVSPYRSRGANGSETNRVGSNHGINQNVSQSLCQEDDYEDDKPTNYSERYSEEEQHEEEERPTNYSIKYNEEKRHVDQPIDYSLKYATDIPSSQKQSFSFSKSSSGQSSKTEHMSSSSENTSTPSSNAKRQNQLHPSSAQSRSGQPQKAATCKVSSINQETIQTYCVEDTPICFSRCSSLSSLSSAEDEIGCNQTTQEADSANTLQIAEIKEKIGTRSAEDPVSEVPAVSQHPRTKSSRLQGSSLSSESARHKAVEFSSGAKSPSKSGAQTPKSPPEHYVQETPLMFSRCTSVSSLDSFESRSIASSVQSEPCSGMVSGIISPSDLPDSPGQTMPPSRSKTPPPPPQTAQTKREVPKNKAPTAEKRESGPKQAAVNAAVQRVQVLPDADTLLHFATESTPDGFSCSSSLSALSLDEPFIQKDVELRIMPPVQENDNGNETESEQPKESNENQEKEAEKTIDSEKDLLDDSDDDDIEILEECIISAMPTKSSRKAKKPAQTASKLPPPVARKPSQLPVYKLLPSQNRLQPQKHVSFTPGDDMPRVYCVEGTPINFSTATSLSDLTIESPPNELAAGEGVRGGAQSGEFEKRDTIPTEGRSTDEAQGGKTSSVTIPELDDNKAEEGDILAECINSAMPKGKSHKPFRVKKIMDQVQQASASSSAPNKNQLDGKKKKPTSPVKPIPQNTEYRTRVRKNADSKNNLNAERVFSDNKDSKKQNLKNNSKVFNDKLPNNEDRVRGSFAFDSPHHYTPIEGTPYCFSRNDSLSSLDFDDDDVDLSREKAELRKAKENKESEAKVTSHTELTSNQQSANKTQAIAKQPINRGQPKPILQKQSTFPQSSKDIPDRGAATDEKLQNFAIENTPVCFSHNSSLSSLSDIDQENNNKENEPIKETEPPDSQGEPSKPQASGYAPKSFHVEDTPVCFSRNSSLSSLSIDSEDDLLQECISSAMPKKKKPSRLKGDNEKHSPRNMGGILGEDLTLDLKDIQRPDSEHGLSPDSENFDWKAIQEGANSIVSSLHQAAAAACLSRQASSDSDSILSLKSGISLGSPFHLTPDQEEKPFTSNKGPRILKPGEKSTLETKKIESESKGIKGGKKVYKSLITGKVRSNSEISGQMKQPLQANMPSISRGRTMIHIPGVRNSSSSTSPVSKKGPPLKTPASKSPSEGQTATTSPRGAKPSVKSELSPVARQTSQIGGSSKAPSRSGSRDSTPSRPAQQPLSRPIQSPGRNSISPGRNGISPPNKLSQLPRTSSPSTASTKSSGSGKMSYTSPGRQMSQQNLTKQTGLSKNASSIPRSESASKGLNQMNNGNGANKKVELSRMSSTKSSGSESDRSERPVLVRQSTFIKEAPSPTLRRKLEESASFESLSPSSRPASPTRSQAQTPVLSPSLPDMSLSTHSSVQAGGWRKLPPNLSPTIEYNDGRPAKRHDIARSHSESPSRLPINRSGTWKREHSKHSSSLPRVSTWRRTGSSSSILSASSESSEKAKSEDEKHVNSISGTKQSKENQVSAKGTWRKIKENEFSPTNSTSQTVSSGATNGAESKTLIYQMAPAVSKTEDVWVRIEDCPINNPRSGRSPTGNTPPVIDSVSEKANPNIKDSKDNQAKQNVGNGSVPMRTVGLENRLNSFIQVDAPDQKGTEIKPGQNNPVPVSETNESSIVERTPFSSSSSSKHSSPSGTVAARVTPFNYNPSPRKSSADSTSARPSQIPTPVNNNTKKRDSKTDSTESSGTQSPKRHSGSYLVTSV
AXIN2 (endogenous, A431 cells), sequence (Q9Y2T1 whole entry): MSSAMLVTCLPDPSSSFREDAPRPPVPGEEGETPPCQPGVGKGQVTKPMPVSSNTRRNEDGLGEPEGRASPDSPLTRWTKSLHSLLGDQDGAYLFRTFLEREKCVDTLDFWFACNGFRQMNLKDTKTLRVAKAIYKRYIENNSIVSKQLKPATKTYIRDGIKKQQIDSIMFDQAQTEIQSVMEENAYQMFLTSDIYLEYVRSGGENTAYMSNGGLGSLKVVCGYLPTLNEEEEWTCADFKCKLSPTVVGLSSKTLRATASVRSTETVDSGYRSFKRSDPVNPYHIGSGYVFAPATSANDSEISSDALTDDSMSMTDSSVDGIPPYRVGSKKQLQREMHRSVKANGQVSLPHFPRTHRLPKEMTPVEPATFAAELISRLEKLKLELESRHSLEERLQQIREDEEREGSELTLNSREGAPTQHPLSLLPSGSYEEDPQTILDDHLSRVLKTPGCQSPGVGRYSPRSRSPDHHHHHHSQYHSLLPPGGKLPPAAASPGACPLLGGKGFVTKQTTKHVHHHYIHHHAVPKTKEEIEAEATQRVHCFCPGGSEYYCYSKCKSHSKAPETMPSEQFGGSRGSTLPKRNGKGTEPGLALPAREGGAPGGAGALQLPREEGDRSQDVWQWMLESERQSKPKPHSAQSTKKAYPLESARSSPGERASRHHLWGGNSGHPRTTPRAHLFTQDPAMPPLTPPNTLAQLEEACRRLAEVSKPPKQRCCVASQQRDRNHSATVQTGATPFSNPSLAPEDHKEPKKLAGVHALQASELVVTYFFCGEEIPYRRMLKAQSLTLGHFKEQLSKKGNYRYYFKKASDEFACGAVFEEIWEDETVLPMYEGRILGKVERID

Binder: B1
binding result [1]: binds | binding result [2]: binds

Binder: B2
binding result [1]: binds | binding result [2]: binds

B4: FLAG-PKM2 K433E (enzyme)
chain: not shown
notes: Expressed in U87/EGFR cells; also called PKM2 K433E mutant
binding result (endogenous β-catenin): no binding

B6: FLAG-PKM2 K367M (kinase-dead) (enzyme)
chain: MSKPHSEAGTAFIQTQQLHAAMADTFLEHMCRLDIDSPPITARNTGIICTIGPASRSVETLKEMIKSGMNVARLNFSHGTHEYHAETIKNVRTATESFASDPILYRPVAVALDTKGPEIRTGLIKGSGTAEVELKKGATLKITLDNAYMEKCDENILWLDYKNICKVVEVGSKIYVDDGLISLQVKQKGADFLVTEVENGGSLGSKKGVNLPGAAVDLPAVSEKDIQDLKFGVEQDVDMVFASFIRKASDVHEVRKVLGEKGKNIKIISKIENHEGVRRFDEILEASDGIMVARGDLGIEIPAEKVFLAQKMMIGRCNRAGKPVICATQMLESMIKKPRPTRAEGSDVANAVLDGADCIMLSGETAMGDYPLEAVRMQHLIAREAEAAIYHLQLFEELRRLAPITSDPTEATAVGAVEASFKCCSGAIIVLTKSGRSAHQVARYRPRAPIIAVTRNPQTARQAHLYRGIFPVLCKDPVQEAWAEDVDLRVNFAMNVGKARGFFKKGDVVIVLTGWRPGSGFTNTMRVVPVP
notes: Expressed in U87/EGFR cells
binding result (endogenous β-catenin): binds

Binder: B8
binding result (endogenous c-Src): binds

Continued, values first:

binding result (FLAG-β-catenin Y333F): binds | binding result (FLAG-tagged WT β-catenin): binds
B3: E-cadherin (endogenous, A431 cells) (other, UniProt P12830 155-882, looked up)
chain: DWVIPPISCPENEKGPFPKNLVQIKSNKDKEGKVFYSITGQGADTPPVGVFIIERETGWLKVTEPLDRERIATYTLFSHAVSSNGNAVEDPMEILITVTDQNDNKPEFTQEVFKGSVMEGALPGTSVMEVTATDADDDVNTYNAAIAYTILSQDPELPDKNMFTINRNTGVISVVTTGLDRESFPTYTLVVQAADLQGEGLSTTATAVITVTDTNDNPPIFNPTTYKGQVPENEANVVITTLKVTDADAPNTPAWEAVYTILNDDGGQFVVTTNPVNNDGILKTAKGLDFEAKQQYILHVAVTNVVPFEVSLTTSTATVTVDVLDVNEAPIFVPPEKRVEVSEDFGVGQEITSYTAQEPDTFMEQKITYRIWRDTANWLEINPDTGAISTRAELDREDFEHVKNSTYTALIIATDNGSPVATGTGTLLLILSDVNDNAPIPEPRTIFFCERNPKPQVINIIDADLPPNTSPFTAELTHGASANWTIQYNDPTQESIILKPKMALEVGDYKINLKLMDNQNKDQVTTLEVSVCDCEGAAGVCRKAQPVEAGLQIPAILGILGGILALLILILLLLLFLRRRAVVKEPLLPPEDDTRDNVYYYDEEGGGEEDQDFDLSQLHRGLDARPEVTRNDVAPTLMSVPRYLPRPANPDEIGNFIDENLKAADTDPTAPPYDSLLVFDYEGSGSEAASLSSLNSSESDKDQDYDYLNEWGNRFKKLADMYGGGEDD

binding result (purified GST-importin α5): no binding
B5: FLAG-PKM2 R399/400A (enzyme)
chain: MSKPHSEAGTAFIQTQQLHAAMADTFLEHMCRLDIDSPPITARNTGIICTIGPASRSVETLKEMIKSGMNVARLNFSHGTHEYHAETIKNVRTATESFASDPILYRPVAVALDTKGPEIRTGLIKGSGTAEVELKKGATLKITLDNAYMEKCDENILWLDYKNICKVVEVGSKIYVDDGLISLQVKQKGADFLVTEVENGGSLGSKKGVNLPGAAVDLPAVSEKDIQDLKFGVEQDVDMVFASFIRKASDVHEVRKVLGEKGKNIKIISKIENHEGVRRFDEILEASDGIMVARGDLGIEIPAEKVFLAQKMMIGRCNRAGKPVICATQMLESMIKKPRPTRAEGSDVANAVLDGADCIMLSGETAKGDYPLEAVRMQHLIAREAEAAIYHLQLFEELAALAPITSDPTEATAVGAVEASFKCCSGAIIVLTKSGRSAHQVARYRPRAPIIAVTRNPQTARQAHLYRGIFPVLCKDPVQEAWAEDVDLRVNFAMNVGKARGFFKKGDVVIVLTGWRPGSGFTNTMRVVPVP
notes: Expressed in U87/EGFR cells

binding result (endogenous β-catenin): binds
B7: FLAG-tagged wild-type PKM2 (enzyme)
chain: not shown
notes: Expressed in U87/EGFR cells; also called FLAG-PKM2; WT FLAG-PKM2

From patent US20150073033A1 (University of Texas, published 2015)
